Paper PMC5218472 (PLoS Biology, 2017)

Tested on: ADAM17
Experiment: PMA-induced ADAM17-mediated IL-6R ectodomain shedding in transiently transfected HEK293 cells, sIL-6R ELISA
Assay type: cell-based, human
Conditions: for increase of sIL-6R after PMA (unstimulated = 1), mean: 100 nM PMA 2 h vs DMSO
From the text: Fig 4 Mutation of Val-356 is sufficient to block proteolysis of the IL-6R and the Asp358Ala variant. (A) Amino-acid residues from Asp-340 to Ala-370 of the human IL-6R. The identified cleavage site between Pro-355 (P1) and Val-356 (P1′) is indicated. (B) Overview of the six different IL-6R cleavage site mutants. Mutations are colored in either green or blue; the amino-acid residues of the wild-type cleavage site are shown in red. (C) HEK293 cells were transiently transfected with expression plasmids encoding the wild-type IL-6R (PV) or the double mutants (IE, DG) as indicated. Cells were either treated with 100 nM PMA for 2 h or DMSO as vehicle control. sIL-6R was precipitated from the supernatant with concanavalin A-covered sepharose beads, and the cells were lysed. Both were analyzed via western blot, and β-actin served as the loading control. One out of three experiments with similar outcomes is shown. (D, E) The experiment was performed as described under (C), but sIL-6R generation was analyzed via ELISA. In (D), the amount of sIL-6R generated after PMA stimulation of the wild-type IL-6R (PV) was set to 100%, and all other values were calculated accordingly. In (E), the amount of sIL-6R without stimulation was considered as constitutive shedding and set to 1, and the increase of sIL-6R was calculated. Data shown are the mean ± SD from at least three independent experiments (*p < 0.05, ns = no significant difference). (F–H) HEK293 cells were transiently transfected with expression plasmids encoding the wild-type IL-6R (PV) or the single mutants (DV, IV, PE, PG) as indicated. The experiments were performed as described in (C) to (E). (I) Overview of the four different IL-6R cleavage site mutants of the IL-6R Asp358Ala variant. Mutations are colored in either green or blue, the amino-acid residues of the wild-type cleavage site are shown in red, and the Asp358Ala single nucleotide polymorphism (SNP) is colored in orange. (J) ADAM17-mediated proteolysis of the IL-6R variants depicted in (I) were analyzed as described in (D). (K–M) Equal numbers of Ba/F3-gp130 cells were incubated for 48 h with increasing amounts (0–100 ng/ml) of either IL-6 or Hyper-IL-6. The stably transduced IL-6R variant is indicated above the diagram. One representative experiment out of three performed is shown (mean ± SD, biological triplicates).
Analysis of IL-6R ectodomain shedding in transiently transfected HEK293 cells or stably transduced Ba/F3-gp130 cell lines by ADAM10 and ADAM17 has been described elsewhere. Analysis of IL-6R proteolysis by CG has been described previously.
The sandwich ELISA, which detects sIL-6R as well as ds-sIL-6R (4-11/Baf227 antibodies) and can be used to quantify total sIL-6R serum levels, was described previously. To specifically detect ds-sIL-6R (either recombinant or in human serum), a similar approach was used (ds6R/Baf227). Both sandwich ELISAs were performed with streptavidin-horseradish peroxidase (R&D Systems, Minneapolis, Minnesota, US) and the peroxidase substrate BM blue POD (Roche, Mannheim, Germany). The enzymatic reaction was stopped by addition of 1.8 M sulfuric acid, and the absorbance read at 450 nm on a Tecan rainbow reader (Tecan, Crailsheim, Germany).

B1: PV: wild-type human IL-6R, cleavage site Pro-355/Val-356 (protein)
chain: LAPRRCPAQEVARGVLTSLPGDSVTLTCPGVEPEDNATVHWVLRKPAAGSHPSRWAGMGRRLLLRSVQLHDSGNYSCYRAGRPAGTVHLLVDVPPEEPQLSCFRKSPLSNVVCEWGPRSTPSLTTKAVLLVRKFQNSPAEDFQEPCQYSQESQKFSCQLAVPEGDSSFYIVSMCVASSVGSKFSKTQTFQGCGILQPDPPANITVTAVARNPRWLSVTWQDPHSWNSSFYRLRFELRYRAERSKTFTTWMVKDLQHHCVIHDAWSGLRHVVQLRAQEEFGQGEWSEWSPEAMGTPWTESRSPPAENEVSTPMQALTTNKDDDNILFRDSANATSLPVQDSSSVPLPTFLVAGGSLAFGTLLCIAIVLRFKKTWKLRALKEGKTSMHPPYSLGQLVPERPRPTPVLVPLISPPVSPSSLGSDNTSSHNRPDARDPRSPYDISNTDYFFPR
modifications: N-linked glycans at Asn-55, Asn-93, Asn-221, Asn-245 and Asn-350, O-linked glycan at Thr-352 (mapped on sIL-6R shed from transfected HEK293 cells)
increase in sIL-6R generation compared to vehicle-treated cells (100 nM PMA 2 h, HEK293, ELISA, mean ± SD): 3.6 ± 1.9 fold | sIL-6R in supernatant (PMA-stimulated PV = 100%), mean (Fig 4D, 100 nM PMA, 2 h, mean of at least 3 independent experiments): 100% | sIL-6R in supernatant (PMA-stimulated PV = 100%), mean (Fig 4D, DMSO vehicle, 2 h (constitutive shedding), mean of at least 3 independent experiments): 34.05% | increase of sIL-6R after PMA (unstimulated = 1), mean (Fig 4E, mean): 3.59 fold | sIL-6R in supernatant (PMA-stimulated PV = 100%), mean (Fig 4G, 100 nM PMA, 2 h, mean of 3): 100% | sIL-6R in supernatant (PMA-stimulated PV = 100%), mean (Fig 4G, DMSO, 2 h, mean of 3): 36.7867% | increase of sIL-6R after PMA (unstimulated = 1), mean (Fig 4H, mean of 3): 2.73 fold
